# T1: mouse β6 on transfected HEK-293 cells (mouse) (UniProt Q9Z0T9)
# T1 sequence (looked up): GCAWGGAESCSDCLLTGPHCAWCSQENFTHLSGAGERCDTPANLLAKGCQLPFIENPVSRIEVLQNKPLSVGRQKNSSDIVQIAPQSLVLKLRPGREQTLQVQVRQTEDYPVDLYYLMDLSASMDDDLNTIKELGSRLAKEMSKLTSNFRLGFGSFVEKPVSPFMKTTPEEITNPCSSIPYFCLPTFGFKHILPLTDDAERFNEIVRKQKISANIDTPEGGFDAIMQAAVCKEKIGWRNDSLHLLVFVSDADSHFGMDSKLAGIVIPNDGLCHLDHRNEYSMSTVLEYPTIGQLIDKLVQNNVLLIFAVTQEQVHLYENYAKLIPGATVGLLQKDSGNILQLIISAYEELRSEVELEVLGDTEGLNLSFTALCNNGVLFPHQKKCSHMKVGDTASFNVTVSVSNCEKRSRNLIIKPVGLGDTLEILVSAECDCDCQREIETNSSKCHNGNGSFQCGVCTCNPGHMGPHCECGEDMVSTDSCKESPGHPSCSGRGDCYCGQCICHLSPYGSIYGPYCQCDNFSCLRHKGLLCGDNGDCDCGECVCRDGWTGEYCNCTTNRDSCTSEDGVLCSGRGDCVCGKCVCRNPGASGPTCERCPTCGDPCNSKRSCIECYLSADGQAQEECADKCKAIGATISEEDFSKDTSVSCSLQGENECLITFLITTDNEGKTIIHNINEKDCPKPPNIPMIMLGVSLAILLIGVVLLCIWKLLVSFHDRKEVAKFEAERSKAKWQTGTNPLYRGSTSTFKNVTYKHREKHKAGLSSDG
# How the values were obtained:
# [1] = target: human αV on parental A375M cells (αVβ3 and αVβ5) (human) (UniProt P06756); assay: FACS, supernatant, parental A375M cells (αVβ3 and αVβ5, no αVβ6)
# [2] = target: human αV on parental A375M cells (αVβ3 and αVβ5) (human) (UniProt P06756); assay: cell-based or functional assay
# [3] = target: T1, mouse β6 on transfected HEK-293 cells (mouse); assay: FACS, purified mAb, transiently transfected HEK-293 cells (parental cells 74)
# [4] = target: mouse αV on transfected HEK-293 cells (mouse) (UniProt P43406); assay: as above
# [5] = target: cynomolgus β6 on transfected HEK-293 cells (cynomolgus); assay: as above
# mouse αV on transfected HEK-293 cells (mouse), sequence (P43406 31-1044): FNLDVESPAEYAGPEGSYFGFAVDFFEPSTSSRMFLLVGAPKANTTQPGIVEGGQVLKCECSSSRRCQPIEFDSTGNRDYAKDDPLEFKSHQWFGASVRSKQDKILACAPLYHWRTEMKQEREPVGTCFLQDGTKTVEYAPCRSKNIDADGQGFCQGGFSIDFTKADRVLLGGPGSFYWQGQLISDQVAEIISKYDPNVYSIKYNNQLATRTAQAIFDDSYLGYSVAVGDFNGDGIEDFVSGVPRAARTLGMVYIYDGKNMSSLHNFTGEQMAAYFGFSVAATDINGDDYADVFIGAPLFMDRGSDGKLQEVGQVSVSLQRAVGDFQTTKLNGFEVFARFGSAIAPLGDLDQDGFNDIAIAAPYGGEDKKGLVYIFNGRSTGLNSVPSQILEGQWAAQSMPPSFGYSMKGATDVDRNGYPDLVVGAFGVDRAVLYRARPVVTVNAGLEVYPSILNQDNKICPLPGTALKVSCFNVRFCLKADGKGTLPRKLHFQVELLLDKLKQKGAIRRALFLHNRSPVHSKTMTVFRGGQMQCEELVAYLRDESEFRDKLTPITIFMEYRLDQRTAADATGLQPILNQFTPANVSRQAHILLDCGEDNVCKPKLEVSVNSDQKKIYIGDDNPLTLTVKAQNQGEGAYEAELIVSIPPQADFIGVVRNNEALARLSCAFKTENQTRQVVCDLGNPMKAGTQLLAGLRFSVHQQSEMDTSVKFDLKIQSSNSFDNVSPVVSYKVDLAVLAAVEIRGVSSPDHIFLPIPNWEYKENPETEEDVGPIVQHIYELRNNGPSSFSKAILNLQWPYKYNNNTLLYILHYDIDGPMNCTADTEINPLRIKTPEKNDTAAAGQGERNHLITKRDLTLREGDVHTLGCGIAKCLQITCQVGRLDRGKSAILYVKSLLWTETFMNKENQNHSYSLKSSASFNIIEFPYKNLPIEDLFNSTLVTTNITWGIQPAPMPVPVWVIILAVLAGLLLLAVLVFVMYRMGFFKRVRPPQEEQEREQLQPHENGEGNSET
A375M % Shifted Cells [1] [%],A375M GeoMean [1],"Percent Inhibition, adhesion of A375M cells to osteopontin peptide, 5 µg/ml [2] [%]",percent of cells shifted [3] [%],percent of cells shifted [4] [%],percent of cells shifted [5] [%],Binder
24,1.84,–,–,–,–,"sc 97 (antibody, V domains shown) VH: EVQLVQSGAEVKKPGESLKISCKGSGYSFTSYWIGWVRQMPGKGLEWMGIIYPGDSDTRYSPSFQGQVILSADKSISTAYLQWSSLKASDTAMYYCARHDESSGYYYVFDIWGQGTMVTVSS VL: SYELTQPPSVSVSPGQTARITCSGDALPKKYAYWYQQKSGQAPVLVIYEDIKRPSGIPERFSGSSSGTMATLTISGAQVEDEADYYCYSTDSSGNHWVFFGGGTKLTVL"
24,1.79,3,–,–,–,"sc 133 (antibody, V domains shown) VH: QVQLVQSGAEVKKPGASVKVSCKASGYTFTGYYMHWVRQAPGQGLEWMGWINPKSGDTNYAQKFQGRVTLTRDTSTSTAYMELSRLRSDDTAVYYCARRLDVWGQGTTVTVSS VL: QSVLTQPPSVSAAPGQKVTISCSGSSSNIGNNYVSWYQQLPGTAPKLLIYDNNKRPSGIPDRFSGSKSGTSATLGITGLQTGDEADYYCGTWNSSLSAGYVFGTGTKVTV"
23,1.86,–,–,–,–,"sc 277 (antibody, V domains shown) VH: EVQLVQSGAEVKKPGESLKISCKGSGYSFPSYWIGWVRQMPGKGLEWMGIIYPGDSDTRYSPSFQGQVTISADKSISTAYLQWSSLKASDTAMYYCARHPMEDGMDVWGQGTTVTVSS VL: SYELTQPPSVSVSPGQTARITCSGDALPKKYAFWYQQKSGQAPVLVIYDDNKRPSGIPERFSGSSSGTMATLTITGAQVEDEADYYCYSTDSSGHHVFGGGTKLTVL"
46,2.35,3,68,71,75,"sc 264 (antibody, V domains shown) VH: QVQLQESGPGLVKPSQTLSLTCTVSGGSISSGGYYWSWIRQHPGKGLEWIGYIYYSGRTYNNPSLKSRVTISVDTSKNQFSLKLSSVTAADTAVYYCARVATGRGDYHFYAMDVWGQGTTVTVSS VL: SYELTQPSSVSVSPGQTARITCSGDVLAKKSARWFHQKPGQAPVLVIYKDSERPSGIPERFSGSSSGTTVTLTISGAQVEDEAAYYCYSAADNNLVFGGGTKLTVL"
11,16.7,–,–,–,–,"sc 161 (antibody, V domains shown) VH: EVQLVQSGAEVKKPGESLKISCKGSGYSFTSYWIGWVRQMPGKGLEWMGIIYPGDSDTRYSPSFQGQVTISADKSISTAYLQWSSLKASDTAMYYCARHGIAAAGFYYYYMDVWGQGTTVTVSS VL: EIVLTQSPDTLSLSPGERASLSCRASQNVNRNYLVWYQQKPGQAPRLLIYGTSNRATGIPDRFSGSGSGTDFTLTISRLEPEDFAVYYCQQCGSLPFTFGPGTKVDIKR"
15,23.2,–,–,–,–,"sc 320 (antibody, V domains shown) VH: EVQLVESGGGLVKPGGSLRLSCAASGYTFTNYIMHWVRQAPGKGLEWVSSISISSSYIYYADSVKGRFTISRDNAKNSLYLQMNSLRAEDTAVYYCARDPVPLERRDYYYGMDVWGQGTTVTVSS VL: QSVLTQPPSMSAAPGQKVTISCSGSSSNIGNNYVSWYQQLPGTAPKLLIYDNNKRPSGIPDRFSGSKSGTSATLGITGLQTGDEADYYCGTWDSSLSAGVFGGGTKLTVL"

# — patent US20150166663A1
